Tested on: peptide library, one residue held at a place counted from the Y acceptor
Assay: relative phosphorylation of the sub-library (ratio to the mean residue at this position); higher = residue favoured
In short: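 Peptide library mixtures, biotinylated and centred on Tyr, each fixed one residue at one position from −5 to +5. Purified recombinant kinases were incubated with them for 90 min in 384-well plates alongside 50 μM ATP and γ-32P-ATP, and the captured, rinsed peptides on streptavidin membranes were measured by phosphorimaging and ImageQuant. Normalization divided each position's intensities by the sum of its 18 randomized residues (16 for the Ser/Thr-free library) and multiplied by that number, so that values give phosphorylation relative to the mean randomized residue.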

NTRK1, construct: aa440-end, human, sequence (P04629 440-796, looked up): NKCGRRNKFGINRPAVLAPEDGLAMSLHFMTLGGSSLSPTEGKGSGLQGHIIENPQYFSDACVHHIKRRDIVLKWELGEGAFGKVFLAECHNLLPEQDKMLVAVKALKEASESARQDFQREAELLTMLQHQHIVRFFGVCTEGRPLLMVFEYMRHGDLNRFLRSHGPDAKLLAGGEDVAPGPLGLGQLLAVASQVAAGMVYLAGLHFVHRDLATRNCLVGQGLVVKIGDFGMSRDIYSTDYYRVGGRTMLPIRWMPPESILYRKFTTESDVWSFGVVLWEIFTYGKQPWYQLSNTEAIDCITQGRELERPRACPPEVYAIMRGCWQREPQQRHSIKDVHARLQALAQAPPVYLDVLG
MUSK, construct: aa529-end, human, sequence (O15146 529-869, looked up): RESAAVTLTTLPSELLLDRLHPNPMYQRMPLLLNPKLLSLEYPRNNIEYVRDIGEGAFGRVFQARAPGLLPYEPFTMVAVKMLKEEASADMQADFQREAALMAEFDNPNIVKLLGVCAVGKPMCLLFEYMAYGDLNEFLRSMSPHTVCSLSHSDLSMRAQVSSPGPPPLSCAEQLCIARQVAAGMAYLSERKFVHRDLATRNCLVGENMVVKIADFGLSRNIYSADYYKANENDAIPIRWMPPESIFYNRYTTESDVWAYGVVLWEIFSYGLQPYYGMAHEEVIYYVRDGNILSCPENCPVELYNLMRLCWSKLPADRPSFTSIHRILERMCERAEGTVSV

MST1R (from UniProt Q04912)
relative phosphorylation
Conditions	at +1	at +2	at +3	at +4	at +5	at -1	at -2	at -3	at -4	at -5
A fixed	0.871	0.845	0.68	0.963	1.06	0.744	0.976	0.932	1.03	0.978
D fixed	0.356	0.803	0.406	0.696	0.865	1.38	1.03	1.2	1.02	0.894
E fixed	0.55	0.767	0.281	0.622	0.874	1.01	0.864	1.06	0.966	0.851
F fixed	1.62	0.938	1.28	1.1	0.582	1.06	0.794	0.996	1.1	1.1
G fixed	0.645	0.821	0.766	1.17	1.25	0.665	1.38	1.21	1.25	1.13
H fixed	1.3	0.906	0.968	1.11	1.03	1.12	0.938	0.991	0.847	0.989
I fixed	1.51	1	2.14	0.923	0.473	1.36	0.957	0.801	0.85	0.932
K fixed	0.618	1.14	0.612	0.921	1.66	0.806	1.04	1	1.08	1.13
L fixed	1.32	1.15	1.67	0.924	0.626	1.29	0.903	0.937	1.04	1.07
M fixed	1.15	0.99	1.32	1.1	0.715	0.904	0.685	0.845	0.941	0.974
N fixed	0.594	1.13	0.492	0.82	1.23	1.25	0.978	1.01	0.796	0.864
P fixed	0.672	0.967	1.17	1.03	1.57	0.768	1.31	1.09	1.16	1.07
Q fixed	1.04	0.996	0.577	1.04	1.16	0.977	1.07	1.01	0.996	0.946
R fixed	0.922	1.3	0.862	1.34	1.75	0.757	1.28	1.18	1.09	1.18
S fixed	0.901	0.95	0.712	0.897	1.25	0.777	1.23	1.2	0.87	0.974
T fixed	0.876	0.792	0.623	0.85	1.17	0.899	0.973	0.91	0.821	0.884
V fixed	1.46	1.04	1.36	0.901	0.579	1.15	1.02	0.728	0.89	0.939
W fixed	1.36	1.2	1.41	1.34	0.575	0.762	0.77	0.997	0.953	0.953
pThr fixed	0.564	0.981	0.277	0.414	0.638	1.16	1.02	0.95	0.758	0.795
pTyr fixed	1.73	1.79	0.651	1.11	0.728	2.14	1.1	1.13	1.04	0.922

MUSK, construct: aa529-end, human (from UniProt O15146)
relative phosphorylation
Conditions	at +1	at +2	at +3	at +4	at +5	at -1	at -2	at -3	at -4	at -5
A fixed	1.21	0.711	0.689	0.799	0.969	0.559	0.817	0.963	1.25	1.09
D fixed	0.341	0.179	0.233	0.665	0.832	0.932	0.856	1.09	0.763	0.981
E fixed	0.619	0.251	0.156	0.481	0.784	2.14	1.44	1	0.919	0.766
F fixed	1.9	1.59	1.49	1.06	1.01	1.33	0.962	1.16	1.38	1.33
G fixed	0.835	0.386	0.886	0.94	1.08	0.401	1.06	0.981	1.14	1.06
H fixed	1.68	0.852	0.868	1.2	1.07	1.51	1.14	1.04	0.977	0.891
I fixed	1.31	1.54	1.59	0.808	0.781	1.5	1.02	0.87	1.02	0.946
K fixed	0.317	1.58	0.99	1.53	1.15	0.248	0.779	0.855	0.822	0.916
L fixed	0.926	1.12	1.09	0.907	1.02	1.62	1.09	1.04	1.13	1.17
M fixed	1.58	0.918	1.24	1.1	0.964	0.939	0.914	1.15	0.996	1.13
N fixed	0.41	0.774	0.62	0.848	0.935	2.14	1.35	1.09	0.877	1.04
P fixed	0.151	0.654	1.2	0.974	1.04	0.476	0.672	0.865	1.09	1.01
Q fixed	0.768	0.847	0.48	1.11	0.786	0.782	1.04	0.881	1.06	1.11
R fixed	0.541	2.19	2.06	1.57	1.66	0.255	0.976	0.866	0.972	0.892
S fixed	0.58	0.819	0.591	1.04	0.858	0.437	1.05	1.09	0.721	0.804
T fixed	0.563	0.862	0.843	0.771	0.987	0.465	1.03	0.936	0.627	0.663
V fixed	1.55	1.69	1.48	0.86	0.836	1.19	0.921	0.874	0.881	0.962
W fixed	2.72	1.05	1.49	1.36	1.24	1.06	0.892	1.25	1.39	1.25
pThr fixed	1.15	0.475	0.215	0.619	0.435	1.32	0.741	0.718	0.587	0.773
pTyr fixed	11.8	1.11	0.592	0.73	0.832	5.58	1.07	1.32	0.963	1.02

NTRK1, construct: aa440-end, human (from UniProt P04629)
relative phosphorylation
Conditions	at +1	at +2	at +3	at +4	at +5	at -1	at -2	at -3	at -4	at -5
A fixed	1.34	0.684	0.751	0.76	0.909	0.676	0.944	0.792	1.02	0.882
D fixed	0.529	0.79	0.541	1.4	1.19	2.24	1.22	1.3	1.08	1.17
E fixed	0.936	1.28	0.45	1.52	1.12	1.07	1.34	1.5	1.32	1.03
F fixed	1.66	1.26	1.82	0.952	1.24	0.966	0.812	1.12	1.33	1.04
G fixed	0.711	0.438	0.891	1.25	1.07	0.578	1.05	0.955	1.05	1.08
H fixed	0.979	0.731	0.706	1.09	0.991	1.42	0.947	1.15	0.963	1.04
I fixed	1.66	1.28	2.02	0.897	0.748	1.32	0.854	0.777	0.837	0.946
K fixed	0.236	0.577	0.271	0.658	0.783	0.273	0.811	0.691	0.722	0.782
L fixed	1.2	1.2	1.92	0.734	0.983	1.17	1.01	0.794	0.939	0.93
M fixed	1.79	1.4	1.64	1.04	1.03	0.884	1.02	0.979	0.884	0.997
N fixed	0.441	0.952	0.475	0.899	1	2.12	1.25	1.39	0.93	1.23
P fixed	0.267	0.688	0.885	1.15	1.42	0.942	0.936	0.875	1.12	0.996
Q fixed	0.984	0.922	0.544	1.01	0.944	0.869	1.18	0.872	1.1	1.04
R fixed	0.273	0.983	0.419	0.803	0.883	0.349	0.871	0.854	0.79	1.02
S fixed	0.736	0.743	0.725	0.829	0.788	0.686	1.11	1.01	0.803	0.89
T fixed	0.916	0.955	0.868	0.85	0.715	0.873	0.897	0.987	0.671	0.939
V fixed	1.84	1.06	1.38	0.784	0.743	0.951	0.756	0.696	0.791	0.785
W fixed	1.5	2.06	1.71	1.37	1.43	0.614	0.99	1.25	1.66	1.2
pThr fixed	1.54	0.962	0.449	1.08	0.958	0.981	0.838	0.952	0.96	1.03
pTyr fixed	2.47	2.33	0.884	1.74	1.01	4.13	1.32	1.48	1.44	1.23

— the supplement of paper PMC11136658
